In test [1] the target is ΔDII-PfAMA1 (PfAMA1 DI-DII with residues 351-387 of the DII loop replaced by 7 Gly/Ser residues) (Plasmodium falciparum) (UniProt Q7KQK5). Description: ITC; 25°C, MicroCal iTC200; cell: PfAMA1 or ΔDII-PfAMA1 (10 μM); syringe: PfRON2D3-TRX (110 μM), 17 injections of 2.2 μL; 20 mM Hepes pH 7.5, 150 mM NaCl; one binding site model. In general terms: Isothermal titration calorimetry measures the heat released or taken up as one component is titrated into another.

For test [2], the target named is F*PfRON2sp1 (39 aa) [2021-2059], fluorescein-labeled PfRON2sp1 peptide (Plasmodium falciparum). Description: fluorescence polarisation; anisotropy titration at 20°C; 10 nM F*PfRON2sp1 titrated with protein (0 to 10 μM); PBS pH 7.4, at least 0.1% BSA.
Test [3] shares this target. Description: fluorescence polarisation; anisotropy kinetics at 20°C; association: 10 nM labeled probe with 50, 100, 200 nM protein; dissociation: 10 nM preformed complex challenged with 2500 or 5000 nM unlabeled PfRON2sp1; global fit to a one-intermediate model; PBS pH 7.4, at least 0.1% BSA.
The target is the same in test [4]. Description: fluorescence polarisation; anisotropy titration at 30°C; 10 nM F*PfRON2sp1 titrated with protein (0 to 10 μM); PBS pH 7.4, at least 0.1% BSA. Background: Fluorescence polarisation rises when a labelled molecule tumbles more slowly, as on binding a larger partner.
Test [5] has the same target. Description: fluorescence polarisation; anisotropy kinetics at 30°C; association: 10 nM labeled probe with 50, 100, 200 nM protein; dissociation: 10 nM preformed complex challenged with 2500 or 5000 nM unlabeled PfRON2sp1; global fit to a one-intermediate model; PBS pH 7.4, at least 0.1% BSA.
Test [6] has the same target. Description: fluorescence polarisation; anisotropy kinetics at 25°C; association: 10 nM labeled probe with 50, 100, 200 nM protein; dissociation: 10 nM preformed complex challenged with 2500 or 5000 nM unlabeled PfRON2sp1; global fit to a one-intermediate model; PBS pH 7.4, at least 0.1% BSA.
Test [7] has the same target. Description: fluorescence polarisation; anisotropy titration at 25°C; 10 nM F*PfRON2sp1 titrated with protein (0 to 10 μM); PBS pH 7.4, at least 0.1% BSA.
Test [8] concerns the target T1, PfAMA1 (DI-DII of Plasmodium falciparum Apical Membrane Antigen 1, 3D7, residues 104-438) (Plasmodium falciparum, UniProt Q7KQK5 104-438).
T1 construct: codon-optimized synthetic gene; also called native PfAMA1; PfAMA1 DI-DII construct
T1 sequence: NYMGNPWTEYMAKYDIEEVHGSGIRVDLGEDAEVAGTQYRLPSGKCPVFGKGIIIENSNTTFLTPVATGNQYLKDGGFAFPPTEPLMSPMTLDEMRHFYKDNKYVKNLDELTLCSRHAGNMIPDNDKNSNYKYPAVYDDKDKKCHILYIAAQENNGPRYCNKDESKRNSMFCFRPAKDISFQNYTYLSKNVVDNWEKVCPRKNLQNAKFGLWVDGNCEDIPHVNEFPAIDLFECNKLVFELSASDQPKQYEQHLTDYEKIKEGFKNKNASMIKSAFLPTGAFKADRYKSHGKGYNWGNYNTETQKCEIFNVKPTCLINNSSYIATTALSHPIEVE
Description: ITC; 25°C, MicroCal iTC200; cell: PfAMA1 or ΔDII-PfAMA1 (10 μM); syringe: PfRON2D3-TRX (110 μM), 17 injections of 2.2 μL; 20 mM Hepes pH 7.5, 150 mM NaCl; one binding site model. To be noted: both partners purified.

Test [9] addresses T1, PfAMA1 (DI-DII of Plasmodium falciparum …). The description is as above. To be noted: both partners purified. The source holds these as a separate data set.
Test [10] shares this target. Description: fluorescence polarisation; anisotropy titration at 20°C; 10 nM F*PfRON2sp1 titrated with protein (0 to 10 μM); PBS pH 7.4, at least 0.1% BSA. To be noted: both partners purified.
Test [11] has the same target. Description: fluorescence polarisation; anisotropy titration at 30°C; 10 nM F*PfRON2sp1 titrated with protein (0 to 10 μM); PBS pH 7.4, at least 0.1% BSA. To be noted: both partners purified.
Test [12] has the same target. Description: fluorescence polarisation; anisotropy kinetics at 30°C; association: 10 nM labeled probe with 50, 100, 200 nM protein; dissociation: 10 nM preformed complex challenged with 2500 or 5000 nM unlabeled PfRON2sp1; global fit to a one-intermediate model; PBS pH 7.4, at least 0.1% BSA. Conditions: both partners purified.
Test [13] has the same target. Description: fluorescence polarisation; anisotropy kinetics at 25°C; association: 10 nM labeled probe with 50, 100, 200 nM protein; dissociation: 10 nM preformed complex challenged with 2500 or 5000 nM unlabeled PfRON2sp1; global fit to a one-intermediate model; PBS pH 7.4, at least 0.1% BSA. To be noted: both partners purified.
Test [14] has the same target. Description: fluorescence polarisation; anisotropy kinetics at 20°C; association: 10 nM labeled probe with 50, 100, 200 nM protein; dissociation: 10 nM preformed complex challenged with 2500 or 5000 nM unlabeled PfRON2sp1; global fit to a one-intermediate model; PBS pH 7.4, at least 0.1% BSA. To be noted: both partners purified.
For test [15] the target is unchanged. Description: fluorescence polarisation; anisotropy titration at 25°C; 10 nM F*PfRON2sp1 titrated with protein (0 to 10 μM); PBS pH 7.4, at least 0.1% BSA. To be noted: both partners purified.

Bridge positions count the residues as written; N and C are the ends. Ends that are not written are not given here. * marks the point of attachment. 5FAM = O=C1OC2(c3ccc(O)cc3Oc3cc(O)ccc32)c2ccc(C(=O)*)cc21

For the molecule “PfRON2D3-TRX (thioredoxin fusion of PfRON2D3, amino acids Asp2021 to Ser2059) (domain or fragment)”, in test [1], the Kd (usually the concentration at which binding is half-saturated) is 92.6 nM and the dH was -11.8 kcal/mol.

As for “ΔDII-PfAMA1 (PfAMA1 DI-DII with residues 351-387 of the DII loop replaced by 7 Gly/Ser residues) (from UniProt Q7KQK5 104-350; Q7KQK5 388-438) (domain or fragment)”, in test [2], the Kd came to 60 nM. In [3], the Kd was determined as 50 nM; the complex half-life (calculated from the one-intermediate model) is 166 s; the complex half-life (experimental) was 100 s; the k1 (step 1, forward: reactants to intermediate) is 78900 M⁻¹ s⁻¹. For the same molecule, in [3], the k1/k2 (association constant of step 1) was 1.89e+07 M⁻¹; the k2 (step 1, reverse: intermediate to reactants) came to 0.00417 s⁻¹; the k3 (step 2, forward: intermediate to complex) was determined as 0.00459 s⁻¹; the k3/k4 (equilibrium constant of step 2) came to 0.056. In test [3], this molecule yielded a k4 (step 2, reverse: complex to intermediate) of 0.0812 s⁻¹. The molecule also displayed a Kd in test [4] of 125 nM. Also, in test [5], the Kd is 126 nM; the complex half-life (calculated from the one-intermediate model) was 30 s; the complex half-life (experimental) is 30 s; the k1 (step 1, forward: reactants to intermediate) is 168000 M⁻¹ s⁻¹. In addition, in test [5], the k1/k2 (association constant of step 1) was 7.35e+06 M⁻¹; the k2 (step 1, reverse: intermediate to reactants) was 0.0229 s⁻¹; the k3 (step 2, forward: intermediate to complex) stood at 0.0117 s⁻¹; the k3/k4 (equilibrium constant of step 2) was found to be 0.08. In test [5], this molecule had a k4 (step 2, reverse: complex to intermediate) of 0.147 s⁻¹. Moreover, in test [6], the Kd turned out to be 80.1 nM; the complex half-life (calculated from the one-intermediate model) is 69.9 s; the complex half-life (experimental) amounted to 48 s; the dH (overall, summation of the transition states from the kinetic fit) is -10.6 kcal/mol. In test [6], the dH of step 1 (formation of the intermediate) is -16.7 kcal/mol; the k1 (step 1, forward: reactants to intermediate) is 116000 M⁻¹ s⁻¹; the k1/k2 (association constant of step 1) came out at 1.17e+07 M⁻¹; the k2 (step 1, reverse: intermediate to reactants) came to 0.0099 s⁻¹. In addition, in [6], the k3 (step 2, forward: intermediate to complex) turned out to be 0.0074 s⁻¹; the k3/k4 (equilibrium constant of step 2) amounted to 0.067; the k4 (step 2, reverse: complex to intermediate) stood at 0.11 s⁻¹. Further, the Kd in test [7] was found to be 94 nM.

B1: PfRON2D3-TRX (thioredoxin fusion of PfRON2D3, amino acids Asp2021 to Ser2059) (domain or fragment)
chain: DITQQAKDIGAGPVASCFTTRMSPPQQICLNSVVNTALS
notes: Modified pET32a vector with N-terminal hexahistidine and thioredoxin tags and a thrombin cleavage site; the fusion was used uncleaved in ITC; also called TRX-fused peptide; not shown: thioredoxin (TRX), N-terminal, kept
Turning to B1, in test [8], binding was characterised by a dissociation constant (Kd) of 42.9 nM. The same molecule registered a dH in test [9] of -12.1 ± 0.1 kcal/mol.

B2: F*PfRON2sp1 (39 aa) [2021-2059], fluorescein-labeled PfRON2sp1 peptide (peptide)
peptide: 5FAM-DITQQAKDIGAGPVASCFTTRMSPPQQICLNSVVNTALS
modifications: disulfide 17-29
notes: Rhoptry Neck Protein 2 (RON2) of Plasmodium falciparum, residues 2021-2059; also called labeled peptide; labeled probe; source: synthetic peptide, bought: Kinexus (purity ≥ 95%)
Consider B2, for which the Kd in [10] came to 31 ± 2 nM; in [11] it was 61 ± 5 nM; in test [12], 43.8 ± 11 nM; in test [13] it was 38.2 ± 10 nM; in [14] it was 32.3 ± 8 nM; in [15], 43 ± 3 nM.

Values taken from paper PMC4701444 (PLoS ONE, 2016).
